Data: publication PMC4024244 (Human genetics, 2013)

T1: MuSK protein (Millipore) (UniProt O15146 24-495)
T1 chain: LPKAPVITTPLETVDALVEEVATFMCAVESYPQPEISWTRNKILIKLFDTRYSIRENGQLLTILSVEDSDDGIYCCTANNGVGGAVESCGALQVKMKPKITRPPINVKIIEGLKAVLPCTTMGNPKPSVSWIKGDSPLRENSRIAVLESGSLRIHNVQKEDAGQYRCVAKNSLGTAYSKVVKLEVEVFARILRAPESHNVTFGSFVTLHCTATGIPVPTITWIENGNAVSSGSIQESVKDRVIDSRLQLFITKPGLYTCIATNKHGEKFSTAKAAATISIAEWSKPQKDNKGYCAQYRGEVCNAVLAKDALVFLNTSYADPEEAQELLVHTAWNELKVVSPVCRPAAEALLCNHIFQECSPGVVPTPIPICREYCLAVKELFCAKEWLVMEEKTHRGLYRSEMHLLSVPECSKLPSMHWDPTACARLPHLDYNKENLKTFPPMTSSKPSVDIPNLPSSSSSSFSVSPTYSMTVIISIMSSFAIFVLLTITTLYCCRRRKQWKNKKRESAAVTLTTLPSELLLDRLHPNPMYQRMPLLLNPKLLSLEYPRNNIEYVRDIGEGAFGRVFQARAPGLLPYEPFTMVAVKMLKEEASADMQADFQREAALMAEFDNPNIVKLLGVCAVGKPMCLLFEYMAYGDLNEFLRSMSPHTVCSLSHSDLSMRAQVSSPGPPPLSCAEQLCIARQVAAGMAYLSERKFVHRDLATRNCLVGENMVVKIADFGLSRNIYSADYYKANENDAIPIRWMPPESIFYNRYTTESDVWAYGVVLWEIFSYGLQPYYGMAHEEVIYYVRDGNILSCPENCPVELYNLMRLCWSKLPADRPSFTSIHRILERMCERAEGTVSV

T2: muscle-specific receptor tyrosine kinase (MuSK), wild type, expressed in HEK-293 (human, UniProt O15146 24-869)
T2 sequence (looked up): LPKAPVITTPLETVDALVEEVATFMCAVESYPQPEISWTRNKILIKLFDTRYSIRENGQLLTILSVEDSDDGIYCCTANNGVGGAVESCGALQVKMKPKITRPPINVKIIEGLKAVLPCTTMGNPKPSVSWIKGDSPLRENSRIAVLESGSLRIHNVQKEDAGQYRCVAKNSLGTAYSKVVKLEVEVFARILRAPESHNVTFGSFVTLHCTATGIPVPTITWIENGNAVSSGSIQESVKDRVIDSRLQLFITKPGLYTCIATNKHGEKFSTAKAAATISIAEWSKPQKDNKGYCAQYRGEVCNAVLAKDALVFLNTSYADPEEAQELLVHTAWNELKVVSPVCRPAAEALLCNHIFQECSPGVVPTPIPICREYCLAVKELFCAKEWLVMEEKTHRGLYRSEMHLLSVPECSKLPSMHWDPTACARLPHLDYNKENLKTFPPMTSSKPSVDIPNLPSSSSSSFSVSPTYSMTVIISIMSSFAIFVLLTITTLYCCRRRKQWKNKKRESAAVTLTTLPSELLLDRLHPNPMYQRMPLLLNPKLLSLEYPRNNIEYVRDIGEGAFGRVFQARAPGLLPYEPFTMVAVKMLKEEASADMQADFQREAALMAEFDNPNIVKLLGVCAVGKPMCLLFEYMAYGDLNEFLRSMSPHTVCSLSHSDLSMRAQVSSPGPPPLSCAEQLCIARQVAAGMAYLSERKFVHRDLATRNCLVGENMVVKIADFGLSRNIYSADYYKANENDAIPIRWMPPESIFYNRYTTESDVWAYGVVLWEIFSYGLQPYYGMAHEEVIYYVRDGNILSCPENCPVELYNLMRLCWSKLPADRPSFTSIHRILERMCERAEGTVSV

B1: purified A12 asymmetric form of AChE with ColQ p.Cys397Ser (complex, human)
chain 1: QPTFINSVLPISAALPSLDQKKRGGHKACCLLTPPPPPLFPPPFFRGGRSPLLSPDMKNLMLELETSQSPCMQGSLGSPGPPGPQGPPGLPGKTGPKGEKGELGRPGRKGRPGPPGVPGMPGPIGWPGPEGPRGEKGDLGMMGLPGSRGPMGSKGYPGSRGEKGSRGEKGDLGPKGEKGFPGFPGMLGQKGEMGPKGEPGIAGHRGPTGRPGKRGKQGQKGDSGVMGPPGKPGPSGQPGRPGPPGPPPAGQLIMGPKGERGFPGPPGRCLCGPTMNVNNPSYGESVYGPSSPRVPVIFVVNNQEELERLNTQNAIAFRRDQRSLYFKDSLGWLPIQLTPFYPVDYTADQHGTCGDGLLQPGEECDDGNSDVGDDSIRCHRAYCGDGHRHEGVEDCDGSDFGYLTCETYLPGSYGDLQCTQYCYIDSTPCRYFT
chain 2: EGREDAELLVTVRGGRLRGIRLKTPGGPVSAFLGIPFAEPPMGPRRFLPPEPKQPWSGVVDATTFQSVCYQYVDTLYPGFEGTEMWNPNRELSEDCLYLNVWTPYPRPTSPTPVLVWIYGGGFYSGASSLDVYDGRFLVQAERTVLVSMNYRVGAFGFLALPGSREAPGNVGLLDQRLALQWVQENVAAFGGDPTSVTLFGESAGAASVGMHLLSPPSRGLFHRAVLQSGAPNGPWATVGMGEARRRATQLAHLVGCPPGGTGGNDTELVACLRTRPAQVLVNHEWHVLPQESVFRFSFVPVVDGDFLSDTPEALINAGDFHGLQVLVGVVKDEGSYFLVYGAPGFSKDNESLISRAEFLAGVRVGVPQVSDLAAEAVVLHYTDWLHPEDPARLREALSDVVGDHNVVCPVAQLAGRLAAQGARVYAYVFEHRASTLSWPLWMGVPHGYEIEFIFGIPLDPSRNYTAEEKIFAQRLMRYWANFARTGDPNEPRDPKAPQWPPYTAGAQQYVSLDLRPLEVRRGLRAQACAFWNRFLPKLLSATDTLDEAERQWKAEFHRWSSYMVHWKNQFDHYSKQDRCSDL
B2: purified A12 asymmetric form of AChE with ColQ p.Asp370Asn (complex, human)
chain 1: QPTFINSVLPISAALPSLDQKKRGGHKACCLLTPPPPPLFPPPFFRGGRSPLLSPDMKNLMLELETSQSPCMQGSLGSPGPPGPQGPPGLPGKTGPKGEKGELGRPGRKGRPGPPGVPGMPGPIGWPGPEGPRGEKGDLGMMGLPGSRGPMGSKGYPGSRGEKGSRGEKGDLGPKGEKGFPGFPGMLGQKGEMGPKGEPGIAGHRGPTGRPGKRGKQGQKGDSGVMGPPGKPGPSGQPGRPGPPGPPPAGQLIMGPKGERGFPGPPGRCLCGPTMNVNNPSYGESVYGPSSPRVPVIFVVNNQEELERLNTQNAIAFRRDQRSLYFKDSLGWLPIQLTPFYPVDYTANQHGTCGDGLLQPGEECDDGNSDVGDDCIRCHRAYCGDGHRHEGVEDCDGSDFGYLTCETYLPGSYGDLQCTQYCYIDSTPCRYFT
chain 2: EGREDAELLVTVRGGRLRGIRLKTPGGPVSAFLGIPFAEPPMGPRRFLPPEPKQPWSGVVDATTFQSVCYQYVDTLYPGFEGTEMWNPNRELSEDCLYLNVWTPYPRPTSPTPVLVWIYGGGFYSGASSLDVYDGRFLVQAERTVLVSMNYRVGAFGFLALPGSREAPGNVGLLDQRLALQWVQENVAAFGGDPTSVTLFGESAGAASVGMHLLSPPSRGLFHRAVLQSGAPNGPWATVGMGEARRRATQLAHLVGCPPGGTGGNDTELVACLRTRPAQVLVNHEWHVLPQESVFRFSFVPVVDGDFLSDTPEALINAGDFHGLQVLVGVVKDEGSYFLVYGAPGFSKDNESLISRAEFLAGVRVGVPQVSDLAAEAVVLHYTDWLHPEDPARLREALSDVVGDHNVVCPVAQLAGRLAAQGARVYAYVFEHRASTLSWPLWMGVPHGYEIEFIFGIPLDPSRNYTAEEKIFAQRLMRYWANFARTGDPNEPRDPKAPQWPPYTAGAQQYVSLDLRPLEVRRGLRAQACAFWNRFLPKLLSATDTLDEAERQWKAEFHRWSSYMVHWKNQFDHYSKQDRCSDL
B3: ColQ p.Asp370Asn (natural protein, human, UniProt Q9Y215-1 23-455, looked up)
chain: QPTFINSVLPISAALPSLDQKKRGGHKACCLLTPPPPPLFPPPFFRGGRSPLLSPDMKNLMLELETSQSPCMQGSLGSPGPPGPQGPPGLPGKTGPKGEKGELGRPGRKGRPGPPGVPGMPGPIGWPGPEGPRGEKGDLGMMGLPGSRGPMGSKGYPGSRGEKGSRGEKGDLGPKGEKGFPGFPGMLGQKGEMGPKGEPGIAGHRGPTGRPGKRGKQGQKGDSGVMGPPGKPGPSGQPGRPGPPGPPPAGQLIMGPKGERGFPGPPGRCLCGPTMNVNNPSYGESVYGPSSPRVPVIFVVNNQEELERLNTQNAIAFRRDQRSLYFKDSLGWLPIQLTPFYPVDYTANQHGTCGDGLLQPGEECDDGNSDVGDDCIRCHRAYCGDGHRHEGVEDCDGSDFGYLTCETYLPGSYGDLQCTQYCYIDSTPCRYFT
B4: ColQ p.Gly423Val (natural protein, human, UniProt Q9Y215-1 23-455, looked up)
chain: QPTFINSVLPISAALPSLDQKKRGGHKACCLLTPPPPPLFPPPFFRGGRSPLLSPDMKNLMLELETSQSPCMQGSLGSPGPPGPQGPPGLPGKTGPKGEKGELGRPGRKGRPGPPGVPGMPGPIGWPGPEGPRGEKGDLGMMGLPGSRGPMGSKGYPGSRGEKGSRGEKGDLGPKGEKGFPGFPGMLGQKGEMGPKGEPGIAGHRGPTGRPGKRGKQGQKGDSGVMGPPGKPGPSGQPGRPGPPGPPPAGQLIMGPKGERGFPGPPGRCLCGPTMNVNNPSYGESVYGPSSPRVPVIFVVNNQEELERLNTQNAIAFRRDQRSLYFKDSLGWLPIQLTPFYPVDYTADQHGTCGDGLLQPGEECDDGNSDVGDDCIRCHRAYCGDGHRHEGVEDCDGSDFVYLTCETYLPGSYGDLQCTQYCYIDSTPCRYFT
B5: ColQ p.Cys400Tyr (natural protein, human, UniProt Q9Y215-1 23-455, looked up)
chain: QPTFINSVLPISAALPSLDQKKRGGHKACCLLTPPPPPLFPPPFFRGGRSPLLSPDMKNLMLELETSQSPCMQGSLGSPGPPGPQGPPGLPGKTGPKGEKGELGRPGRKGRPGPPGVPGMPGPIGWPGPEGPRGEKGDLGMMGLPGSRGPMGSKGYPGSRGEKGSRGEKGDLGPKGEKGFPGFPGMLGQKGEMGPKGEPGIAGHRGPTGRPGKRGKQGQKGDSGVMGPPGKPGPSGQPGRPGPPGPPPAGQLIMGPKGERGFPGPPGRCLCGPTMNVNNPSYGESVYGPSSPRVPVIFVVNNQEELERLNTQNAIAFRRDQRSLYFKDSLGWLPIQLTPFYPVDYTADQHGTCGDGLLQPGEECDDGNSDVGDDCIRYHRAYCGDGHRHEGVEDCDGSDFGYLTCETYLPGSYGDLQCTQYCYIDSTPCRYFT
B6: ColQ p.Tyr404Asp (natural protein, human, UniProt Q9Y215-1 23-455, looked up)
chain: QPTFINSVLPISAALPSLDQKKRGGHKACCLLTPPPPPLFPPPFFRGGRSPLLSPDMKNLMLELETSQSPCMQGSLGSPGPPGPQGPPGLPGKTGPKGEKGELGRPGRKGRPGPPGVPGMPGPIGWPGPEGPRGEKGDLGMMGLPGSRGPMGSKGYPGSRGEKGSRGEKGDLGPKGEKGFPGFPGMLGQKGEMGPKGEPGIAGHRGPTGRPGKRGKQGQKGDSGVMGPPGKPGPSGQPGRPGPPGPPPAGQLIMGPKGERGFPGPPGRCLCGPTMNVNNPSYGESVYGPSSPRVPVIFVVNNQEELERLNTQNAIAFRRDQRSLYFKDSLGWLPIQLTPFYPVDYTADQHGTCGDGLLQPGEECDDGNSDVGDDCIRCHRADCGDGHRHEGVEDCDGSDFGYLTCETYLPGSYGDLQCTQYCYIDSTPCRYFT
B7: ColQ p.Cys397Ser (natural protein, human, UniProt Q9Y215-1 23-455, looked up)
chain: QPTFINSVLPISAALPSLDQKKRGGHKACCLLTPPPPPLFPPPFFRGGRSPLLSPDMKNLMLELETSQSPCMQGSLGSPGPPGPQGPPGLPGKTGPKGEKGELGRPGRKGRPGPPGVPGMPGPIGWPGPEGPRGEKGDLGMMGLPGSRGPMGSKGYPGSRGEKGSRGEKGDLGPKGEKGFPGFPGMLGQKGEMGPKGEPGIAGHRGPTGRPGKRGKQGQKGDSGVMGPPGKPGPSGQPGRPGPPGPPPAGQLIMGPKGERGFPGPPGRCLCGPTMNVNNPSYGESVYGPSSPRVPVIFVVNNQEELERLNTQNAIAFRRDQRSLYFKDSLGWLPIQLTPFYPVDYTADQHGTCGDGLLQPGEECDDGNSDVGDDSIRCHRAYCGDGHRHEGVEDCDGSDFGYLTCETYLPGSYGDLQCTQYCYIDSTPCRYFT

Biological target: T1, MuSK protein (Millipore)
Experiment: plate overlay binding assay with

Binder	other [%]
B1	18
B2	15

What follows are binders tested against T2, muscle-specific receptor tyrosine … (assay: co-IP).

Binder	percent reduction of binding to MuSK against WT ColQ [%]
B3	1.5
B4	16.8
B5	5
B6	7.4
B7	6.7
